Here are results for one substance from publication PMC6802964.

Test [1] concerns the target T1, CyPet–Myo1^IQ1–YPet FRET reporter protein (S. pombe).
T1 sequence (Q9Y7Z8 whole entry, looked up): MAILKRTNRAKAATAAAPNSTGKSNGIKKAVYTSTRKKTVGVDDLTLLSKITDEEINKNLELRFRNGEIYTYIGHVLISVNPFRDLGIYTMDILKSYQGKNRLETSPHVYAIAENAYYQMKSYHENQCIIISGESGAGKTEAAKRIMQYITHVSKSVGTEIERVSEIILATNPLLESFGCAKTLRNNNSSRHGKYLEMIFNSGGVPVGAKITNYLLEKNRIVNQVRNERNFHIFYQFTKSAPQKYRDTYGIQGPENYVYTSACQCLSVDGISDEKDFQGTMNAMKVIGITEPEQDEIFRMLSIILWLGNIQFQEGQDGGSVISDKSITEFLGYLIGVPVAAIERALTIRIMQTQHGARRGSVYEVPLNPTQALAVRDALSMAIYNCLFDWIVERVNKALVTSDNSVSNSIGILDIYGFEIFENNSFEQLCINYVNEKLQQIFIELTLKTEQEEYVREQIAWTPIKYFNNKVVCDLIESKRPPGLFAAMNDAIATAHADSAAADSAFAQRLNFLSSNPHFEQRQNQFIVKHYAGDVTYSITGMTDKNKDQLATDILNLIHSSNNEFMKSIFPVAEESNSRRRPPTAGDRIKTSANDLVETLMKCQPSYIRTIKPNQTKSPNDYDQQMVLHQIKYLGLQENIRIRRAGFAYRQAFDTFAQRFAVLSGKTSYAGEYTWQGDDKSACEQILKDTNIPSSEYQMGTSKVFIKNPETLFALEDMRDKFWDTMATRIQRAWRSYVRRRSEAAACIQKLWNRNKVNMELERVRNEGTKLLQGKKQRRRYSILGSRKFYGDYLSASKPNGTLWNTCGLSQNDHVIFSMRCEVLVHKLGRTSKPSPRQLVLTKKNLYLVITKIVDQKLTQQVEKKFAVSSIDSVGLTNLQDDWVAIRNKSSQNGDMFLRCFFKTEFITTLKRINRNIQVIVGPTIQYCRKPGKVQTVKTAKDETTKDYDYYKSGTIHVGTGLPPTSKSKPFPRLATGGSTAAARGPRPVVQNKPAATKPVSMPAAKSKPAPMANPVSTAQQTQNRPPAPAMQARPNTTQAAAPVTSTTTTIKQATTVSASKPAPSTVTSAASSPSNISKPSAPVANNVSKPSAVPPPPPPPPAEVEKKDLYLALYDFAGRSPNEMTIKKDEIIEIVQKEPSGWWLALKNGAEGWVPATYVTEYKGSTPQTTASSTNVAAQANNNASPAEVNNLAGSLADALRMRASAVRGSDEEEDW
Briefly: other fluorescence titration; change of the CyPet-YPet FRET signal of the IQ-FRET protein (1 µM by the methods, 0.5 µM by the legend) with varying concentrations of Cam1 or Cam2; 140 mM KCl, 20 mM MOPS pH 7.0, with or without 2 mM MgCl2, 2 mM EGTA (absence of calcium).

The target of test [2] is T2, CyPet–Myo1^IQ12–YPet FRET reporter protein (S. pombe).
T2 sequence (Q9Y7Z8 whole entry, looked up): T1 sequence (Q9Y7Z8 whole entry, looked up)
Described as above.

As usually defined, the Kd is a measure of binding affinity in units of concentration. In the case of “Cam1 (wild type, amino-terminally acetylated fission yeast calmodulin) (from UniProt P05933 1-150) (natural protein)”, the Kd in test [1] is less than 100 nM. For the same substance, in test [2], the KD of the first binding event is less than 100 nM and the KD of the second binding event is 680 nM.
